± gives the standard deviation of the averaged measurements.
Legend:
Saccharomyces cerevisiae [1] = assay: protein stability index of tFT-peptide fusion (C-terminal peptide) (PSI (0-1 scale)); higher = more stable (slower turnover)
Procedure: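 MPS profiling in S. cerevisiae of the tFT-X12 degron library: putative degron peptides plus stable controls, 12 aa, fused to the C-terminus of a sfGFP-mCherry timer. Cells are FACS-sorted into 8 mCherry/sfGFP bins and deep-sequenced. PSI runs from 0 (unstable) to 1 (stable). Backgrounds are wild type, das1Δ and doa10Δ at 30 °C, and wild type, das1Δ, cdc34-1 and cdc53-1 at 37 °C; 2-3 technical replicates each.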

Saccharomyces cerevisiae [2] = assay: as above; details: genetic background: wild type; temperature: 30 C
[3] = genetic background: cdc34-1, temperature: 37 C
[4] = genetic background: cdc53-1, temperature: 37 C
[5] = genetic background: das1 deletion, temperature: 30 C
[6] = genetic background: das1 deletion, temperature: 37 C
[7] = genetic background: doa10 deletion, temperature: 30 C
[8] = genetic background: wild type, temperature: 30 C
[9] = genetic background: wild type, temperature: 37 C
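Note: PSI is a weighted mean of sequencing reads over stability bins, variants kept only with over 10 reads, mCherry proximal and sfGFP distal, peptide attached via GGGS linker.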

Sequence | protein stability index (Saccharomyces cerevisiae [1]; [3]) | protein stability index (Saccharomyces cerevisiae [1]; [4]) | protein stability index (Saccharomyces cerevisiae [1]; [5]) | protein stability index (Saccharomyces cerevisiae [1]; [6]) | protein stability index (Saccharomyces cerevisiae [1]; [7]) | protein stability index (Saccharomyces cerevisiae [1]; [8]) | protein stability index (Saccharomyces cerevisiae [1]; [9]) | protein stability index (Saccharomyces cerevisiae [2])
CFLSWSLRFFIL | 0.387 ± 0.094 | 0.507 ± 0.022 | 0.482 ± 0.031 | 0.554 ± 0.034 | 0.132 ± 0.0019 | 0.118 ± 0.0054 | 0.139 ± 0.013 | 0.206 ± 0.011
PAPANRPTPRPV | 0.666 ± 0.041 | 0.7177 ± 0.006 | 0.661 ± 0.03 | 0.722 ± 0.011 | 0.652 ± 0.014 | 0.6256 ± 0.006 | 0.7517 ± 0.0059 | 0.7 ± 0.028
AAVQVCVLLLLL | 0.366 ± 0.029 | 0.476 ± 0.032 | 0.341 ± 0.037 | 0.521 ± 0.014 | 0.302 ± 0.0072 | 0.337 ± 0.017 | 0.497 ± 0.014 | 0.414 ± 0.0057
FLCIFFFFLISF | 0.25 ± 0.012 | 0.194 ± 0.0028 | 0.261 ± 0.027 | 0.32 ± 0.004 | 0.346 ± 0.023 | 0.235 ± 0.035 | 0.297 ± 0.02 | 0.27 ± 0.011
LPTVSRPGALIC | 0.562 ± 0.016 | 0.689 ± 0.032 | 0.626 ± 0.033 | 0.69 ± 0.011 | 0.144 ± 0.0049 | 0.192 ± 0.02 | 0.34 ± 0.038 | 0.253 ± 0.013
IKRLKEVARHVS | 0.623 ± 0.057 | 0.706 ± 0.017 | 0.645 ± 0.03 | 0.694 ± 0.0085 | 0.265 ± 0.019 | 0.256 ± 0.031 | 0.4381 ± 0.0021 | 0.44 ± 0.054
WFVLYAEVMGFW | 0.205 ± 0.041 | 0.325 ± 0.043 | 0.241 ± 0.037 | 0.491 ± 0.09 | 0.207 ± 0.029 | 0.231 ± 0.042 | 0.409 ± 0.024 | 0.349 ± 0.0052
FCIFAMQICTSA | 0.126 ± 0.013 | 0.173 ± 0.0037 | 0.112 ± 0.033 | 0.221 ± 0.0074 | 0.084 ± 0.015 | 0.108 ± 0.01 | 0.205 ± 0.015 | 0.18 ± 0.017
VWICPTLFLLFS | 0.486 ± 0.03 | 0.509 ± 0.0088 | 0.369 ± 0.05 | 0.544 ± 0.013 | 0.45736 ± 0.00021 | 0.374 ± 0.018 | 0.529 ± 0.0063 | 0.455 ± 0.014
FLPLLFFFFFRF | 0.377 ± 0.0075 | 0.292 ± 0.0066 | 0.391 ± 0.037 | 0.4846 ± 0.0032 | 0.569 ± 0.012 | 0.403 ± 0.022 | 0.479 ± 0.023 | 0.485 ± 0.008
WGRENLTRVKLE | 0.70486 ± 0.00049 | 0.769 ± 0.0032 | 0.618 ± 0.049 | 0.725 ± 0.0082 | 0.207 ± 0.015 | 0.2 ± 0.017 | 0.424 ± 0.035 | 0.372 ± 0.061
PFVATRVSCFLT | 0.542 ± 0.013 | 0.704 ± 0.024 | 0.626 ± 0.087 | 0.685 ± 0.0089 | 0.339 ± 0.004 | 0.39 ± 0.05 | 0.4393 ± 0.00057 | 0.414 ± 0.015
VYQAFIFRMSLF | 0.529 ± 0.026 | 0.672 ± 0.0078 | 0.586 ± 0.019 | 0.695 ± 0.016 | 0.147 ± 0.0025 | 0.159 ± 0.02 | 0.248 ± 0.0046 | 0.243 ± 0.068
RLLSIFKILHVG | 0.526 ± 0.0063 | 0.6593 ± 0.0037 | 0.638 ± 0.013 | 0.705 ± 0.014 | 0.0881 ± 0.028 | 0.0968 ± 0.0051 | 0.1507 ± 0.00028 | 0.188 ± 0.036
MSIWKIFIWRLG | 0.524 ± 0.017 | 0.627 ± 0.037 | 0.494 ± 0.019 | 0.648 ± 0.028 | 0.132 ± 0.013 | 0.153 ± 0.024 | 0.2694 ± 0.00052 | 0.263 ± 0.019
ALRGLWFPFSCL | 0.66 ± 0.023 | 0.765 ± 0.0018 | 0.68 ± 0.024 | 0.8093 ± 0.0029 | 0.168 ± 0.032 | 0.193 ± 0.028 | 0.283 ± 0.01 | 0.393 ± 0.022
KFFRSWVLTSPA | 0.585 ± 0.06 | 0.607 ± 0.015 | 0.427 ± 0.032 | 0.6157 ± 0.0025 | 0.41 ± 0.021 | 0.444 ± 0.018 | 0.609 ± 0.021 | 0.494 ± 0.057
FYLFPSLPLLLL | 0.424 ± 0.018 | 0.432 ± 0.022 | 0.422 ± 0.018 | 0.544 ± 0.03 | 0.477 ± 0.023 | 0.339 ± 0.03 | 0.46 ± 0.0072 | 0.452 ± 0.044
LGRLDYKRMKRA | 0.7464 ± 0.0014 | 0.748 ± 0.024 | 0.641 ± 0.033 | 0.7434 ± 0.0068 | 0.477 ± 0.017 | 0.51 ± 0.021 | 0.618 ± 0.046 | 0.533 ± 0.076
VLRLVLFVLISV | 0.311 ± 0.065 | 0.348 ± 0.019 | 0.277 ± 0.03 | 0.387 ± 0.016 | 0.2853 ± 0.0015 | 0.268 ± 0.015 | 0.352 ± 0.016 | 0.337 ± 0.0069

Sequence | protein stability index (Saccharomyces cerevisiae [1]; [3]) | protein stability index (Saccharomyces cerevisiae [1]; [4]) | protein stability index (Saccharomyces cerevisiae [1]; [5]) | protein stability index (Saccharomyces cerevisiae [1]; [6]) | protein stability index (Saccharomyces cerevisiae [1]; [7]) | protein stability index (Saccharomyces cerevisiae [1]; [8]) | protein stability index (Saccharomyces cerevisiae [1]; [9]) | protein stability index (Saccharomyces cerevisiae [2])
KHTGTGNAPNCD | 0.686 ± 0.061 | 0.729 ± 0.024 | 0.649 ± 0.013 | 0.719 ± 0.011 | 0.647 ± 0.025 | 0.635 ± 0.011 | 0.712 ± 0.012 | 0.754 ± 0.056
RFICMMYLVYLC | 0.142 ± 0.022 | 0.188 ± 0.023 | 0.192 ± 0.03 | 0.3 ± 0.016 | 0.0601 ± 0.035 | 0.0619 ± 0.018 | 0.073 ± 0.019 | 0.1405 ± 0.0006
LLFLLSPFNFAV | 0.651 ± 0.035 | 0.726 ± 0.0084 | 0.63 ± 0.022 | 0.737 ± 0.0093 | 0.2535 ± 0.0025 | 0.303 ± 0.017 | 0.524 ± 0.03 | 0.328 ± 0.07
LAPPFPVVLTPA | 0.294 ± 0.043 | 0.32381 ± 2.9e-05 | 0.263 ± 0.036 | 0.4137 ± 0.00012 | 0.219 ± 0.0087 | 0.267 ± 0.035 | 0.3816 ± 0.0013 | 0.334 ± 0.015
FLFSSLFCFLFL | 0.461 ± 0.035 | 0.428 ± 0.0099 | 0.474 ± 0.021 | 0.565 ± 0.029 | 0.571 ± 0.018 | 0.46 ± 0.018 | 0.527 ± 0.0061 | 0.433 ± 0.01
ILRIYIPRWRRQ | 0.648 ± 0.069 | 0.6821 ± 0.0054 | 0.62 ± 0.02 | 0.7292 ± 0.0032 | 0.119 ± 0.032 | 0.132 ± 0.035 | 0.332 ± 0.0091 | 0.219 ± 0.087
RTWFTYMSIPVW | 0.196 ± 0.012 | 0.204 ± 0.069 | 0.234 ± 0.026 | 0.341 ± 0.01 | 0.189 ± 0.023 | 0.237 ± 0.026 | 0.311 ± 0.0057 | 0.343 ± 0.024
VYRVTGSWLMWV | 0.511 ± 0.059 | 0.5758 ± 0.0051 | 0.483 ± 0.021 | 0.527 ± 0.0078 | 0.353 ± 0.03 | 0.357 ± 0.019 | 0.4879 ± 0.0027 | 0.434 ± 0.007
VYWRGLHLQRLL | 0.681 ± 0.036 | 0.7679 ± 0.0013 | 0.652 ± 0.033 | 0.775 ± 0.024 | 0.26 ± 0.0053 | 0.29 ± 0.028 | 0.4753 ± 0.0016 | 0.418 ± 0.05
LPPPYSPRLFHN | 0.552 ± 0.065 | 0.7103 ± 0.0065 | 0.699 ± 0.014 | 0.755 ± 0.022 | 0.146 ± 0.016 | 0.166 ± 0.016 | 0.265 ± 0.01 | 0.241 ± 0.1
LFKFCLGIPLFL | 0.51 ± 0.026 | 0.522 ± 0.029 | 0.412 ± 0.037 | 0.576 ± 0.006 | 0.4179 ± 0.004 | 0.402 ± 0.029 | 0.559 ± 0.014 | 0.479 ± 0.038
WFALFYFLVSAF | 0.189 ± 0.019 | 0.257 ± 0.01 | 0.205 ± 0.036 | 0.316 ± 0.0074 | 0.157 ± 0.008 | 0.187 ± 0.0045 | 0.254 ± 0.0038 | 0.266 ± 0.011
CFGSALLKCWLC | 0.602 ± 0.037 | 0.726 ± 0.018 | 0.665 ± 0.013 | 0.7708 ± 0.0038 | 0.299 ± 0.002 | 0.303 ± 0.032 | 0.44 ± 0.0044 | 0.406 ± 0.035
GPRRARLPNFLA | 0.445 ± 0.013 | 0.684 ± 0.031 | 0.657 ± 0.018 | 0.715 ± 0.018 | 0.0795 ± 0.025 | 0.0947 ± 0.025 | 0.123 ± 0.022 | 0.085 ± 0.012
LSRRFSLALFWT | 0.57 ± 0.016 | 0.683 ± 0.051 | 0.654 ± 0.0085 | 0.707 ± 0.026 | 0.1762 ± 0.0015 | 0.197 ± 0.031 | 0.317 ± 0.0078 | 0.279 ± 0.012
FRCRFLLPFYSV | 0.673 ± 0.013 | 0.724 ± 0.0096 | 0.632 ± 0.0089 | 0.733 ± 0.01 | 0.403 ± 0.013 | 0.438 ± 0.014 | 0.603 ± 0.0033 | 0.482 ± 0.019
PLPSEKAPTLLL | 0.686 ± 0.019 | 0.735 ± 0.01 | 0.637 ± 0.0092 | 0.736 ± 0.036 | 0.636 ± 0.027 | 0.6384 ± 0.0045 | 0.718 ± 0.0072 | 0.583 ± 0.15
LLLHFMFSIFWF | 0.3811 ± 0.00039 | 0.375 ± 0.032 | 0.327 ± 0.034 | 0.4583 ± 0.0021 | 0.378 ± 0.011 | 0.324 ± 0.016 | 0.42 ± 0.011 | 0.378 ± 0.023
FLLLVFGLLIDS | 0.183 ± 0.004 | – | 0.246 ± 0.067 | 0.413 ± 0.022 | 0.188 ± 0.017 | 0.222 ± 0.03 | 0.379 ± 0.11 | 0.338 ± 0.016
